From publication PMC8544716

Experiments:
Conditions in all cases: EMSA: 0.2 uM 5'-labelled RNA (90 C 2 min, slow cool to 37 C), yeast tRNA 0.1 ug/reaction, Hfq hexamer 0-500 nM, structure buffer (Ambion), 10 min at 37 C, then …
[1] = molecular target: Hfq (Escherichia coli) (UniProt P0A6X3); assay: footprinting (lead acetate)
[2] = molecular target: Hfq (Escherichia coli) (UniProt P0A6X3); assay: EMSA
[3] = system: Hfq (Escherichia coli); assay: EMSA

Chain of Hfq (Escherichia coli) (UniProt P0A6X3) (P0A6X3 whole entry): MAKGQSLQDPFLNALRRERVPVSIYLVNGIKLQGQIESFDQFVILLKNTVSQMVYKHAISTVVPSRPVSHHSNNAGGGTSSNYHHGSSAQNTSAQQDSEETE

GGAUACGCACAAUAAGGCUAUUGUACGUAUGCAAAUUAAUAAUAAAGGAGAGUAGCAAUGUCAUUCGAAUUACCUGCACUACCAUAUGCUAAAGAUGCUCUGGCACCGCACAUUUCUGCGGAAACCAUCGAGGAUCCCUAGC [sodB130]
binding [1]: binds | Kd [2]: 156 nM

GGAUACGCACAAUAAGGCUAUUGUACGUAUGCAGGCCGGCAAUAAAGGAGAGUAGCAAUGUCAUUCGAAUUACCUGCACUACCAUAUGCUAAAGAUGCUCUGGCACCGCACAUUUCUGCGGAAACCAUCGAGGAUCCCUAGC [sodB130MH]
Kd [2]: 314 nM

sodB130
Kd [3]: 156 nM
